Test results from publication PMC11937480 (Communications Biology, 2025).

Molecular target: T1, HA-ZNF449 (UniProt Q6P9G9 1-518)
T1 sequence (looked up): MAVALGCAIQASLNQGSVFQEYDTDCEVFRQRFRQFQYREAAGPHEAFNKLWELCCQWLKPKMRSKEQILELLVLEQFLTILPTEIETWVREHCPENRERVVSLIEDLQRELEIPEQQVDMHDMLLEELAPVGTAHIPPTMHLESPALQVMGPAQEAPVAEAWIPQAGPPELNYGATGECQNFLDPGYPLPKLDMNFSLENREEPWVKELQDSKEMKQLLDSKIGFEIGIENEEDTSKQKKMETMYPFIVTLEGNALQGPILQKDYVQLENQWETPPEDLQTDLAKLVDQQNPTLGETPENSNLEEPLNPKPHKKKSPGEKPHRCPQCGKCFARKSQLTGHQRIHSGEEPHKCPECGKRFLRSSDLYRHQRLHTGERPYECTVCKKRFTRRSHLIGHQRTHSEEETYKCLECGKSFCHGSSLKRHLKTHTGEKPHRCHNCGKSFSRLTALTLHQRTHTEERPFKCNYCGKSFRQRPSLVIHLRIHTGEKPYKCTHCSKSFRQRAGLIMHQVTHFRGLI
Assay: pull-down

- binding result: binds
B1: GST-fused PTOV1 (125–283 aa) truncation (domain or fragment, UniProt Q86YD1 125-283, looked up)
chain: VNQGENLETDQWPQKLIMQLIPQQLLTTLGPLFRNSQLAQFHFTNRDCDSLKGLCRIMGNGFAGCMLFPHISPCEVRVLMLLYSSKKKIFMGLIPYDQSGFVSAIRQVITTRKQAVGPGGVNSGPVQIVNNKFLAWSGVMEWQEPRPEPNSRSKRWLPS
